This passage reports Kd results from patent US20230227508A1, “SPLIT INTEIN-BASED SELECTION FOR PEPTIDE BINDERS” (priority 2020, published 2023).

The assay concerns the target Expi293F human cell-derived and purified SARS-CoV-2 RBD (RBD296-531) (SARS-CoV-2), P0DTC2.

What is called Kd is the equilibrium constant for the complex coming apart. Read a high Kd as weaker binding.

Molecule GVCKYGEWCEIVEI (modifications not checked) [AMK-1057 (purified, PapB-modified 14 aa thioether-cyclized peptide)] yielded a Kd of 990 nM.
